For test [1], the target named is T1, サバイビン (antigen of the competitive ELISA) (UniProt O15392 1-142).
T1 construct: also called サバイビン1010; 抗原
Briefly: competitive ELISA: fixed VHH equilibrated with varied survivin, free VHH caught on antigen-coated plate, anti-His detection. A general note: ELISA stands for enzyme-linked immunosorbent assay.

Test [2] addresses T2, サバイビンとカルモジュリンとの融合タンパク質 (catalogue no. SUR0801, ATGen) (Homo sapiens (Human), UniProt O15392 1-142, fluorescein-labelled when used as prey in the pull-down).
T2 construct: Bought fusion protein; Fluorescein-labelled in the pull-down; unlabelled and captured through biotin-CBP on the SA chip in the Biacore run; also called 融合タンパク質200; survivin-calmodulin fusion protein
Briefly: SPR, Biacore X100, fusion captured through biotin-CBP on SA chip, VHH 6.25-100 nM as analyte, single cycle. Background: SPR reads the build-up and loss of mass on a sensor chip optically.

A further test concerns the target カルモジュリン (UniProt P0DP23 2-149). Briefly: pull-down with bead-bound VHH, fluorescein-labelled prey, SDS-PAGE.

For orientation: Kd means a measure of binding affinity in units of concentration. Higher therefore signals a looser complex.

T2 sequence (O15392 whole entry, the tested form may be a part): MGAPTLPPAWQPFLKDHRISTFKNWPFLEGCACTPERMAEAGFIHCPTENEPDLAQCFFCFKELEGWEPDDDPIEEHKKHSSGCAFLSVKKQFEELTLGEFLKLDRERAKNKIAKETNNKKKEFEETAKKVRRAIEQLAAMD
T1 sequence (O15392 whole entry): as the sequence (O15392 whole entry, the tested form may be a part) above

B1: 精製したVHH抗体(R7-A), C-terminal His×6, secreted from Brevibacillus (VHH)
VHH: EVQLVESGGGSVQAGGSLRLSCAASGVSNTDMIMIWFRQAPGKEREGVLAAIYKNSTYYADSVKGRFTISQDNAKNTVYLQMNSLKPEDTAIYYCAAIRAVIGRHIRPHIYWGQGTQVTVGG
notes: Expressed with the Brevibacillus secretion system and purified on Ni Sepharose
Take B1: the Kd is 516 nM in test [1] and 25.1 nM in test [2].

B2: R7-AのDNA断片にコードされるVHH抗体 (cell-free translated, on the nucleic acid linker) (VHH)
VHH: EVQLVESGGGSVQAGGSLRLSCAASGVSNTDMIMIWFRQAPGKEREGVLAAIYKNSTYYADSVKGRFTISQDNAKNTVYLQMNSLKPEDTAIYYCAAIRAVIGRHIRPHIYWGQGTQVTVGG
modifications: C-terminus covalently bound to the puromycin of the nucleic acid linker (linker carries biotin and fluorescein)
notes: Made in rabbit reticulocyte lysate and held on streptavidin magnetic beads through the linker for the pull-down; also called VHH抗体タンパク質120
B2: in the test with カルモジュリン, the binding result was “no binding (tested: 200 nM)”.

B3: R7-EのDNA断片にコードされるVHH抗体 (VHH)
VHH: EVQLVESGGGSVQAGGSLRLSCAASGVSNTDMIMIWFRQAPGKEREGVLAAIYKNSTYYADSVKGRFTISQDNAKNTVYLQMNSLKPEDTAVYYCAAISAVIGRHIRPHIYWGQGTQVTVGG
modifications: C-terminus covalently bound to the puromycin of the nucleic acid linker (linker carries biotin and fluorescein)
notes: Cell-free translated, on the nucleic acid linker, as bait in the pull-down
Consider B3, for which, in the test with カルモジュリン, the binding result was “no binding (tested: 500 nM in the protein mix)”.

B4: R7-BのDNA断片にコードされるVHH抗体 (VHH)
VHH: EVQLVESGGGSVQAGGSLRLSCAASGIPIQDSVVLWFRQAPGKEREGVLAAKYRSPTYYADSVKGRFTISQDNAKNTVYLQMNSLKPEDTAIYYCAAIRAVIGRHIRPHIYWGQGTQVTVGG
modifications: C-terminus covalently bound to the puromycin of the nucleic acid linker (linker carries biotin and fluorescein)
notes: as for B3
For the molecule B4, the binding result with カルモジュリン is “no binding (tested: 200 nM alone; 500 nM in the protein mix)”.

B5: R7-DのDNA断片にコードされるVHH抗体 (VHH)
VHH: EVQLVESGGGSVQAGGSLRLSCAASGVSNTDMIMIWFRQAPGKEREGVLAAIYKNSTYYADSVKGRFTISQDNAKNTVYLQMNSLKPEDTAIYYCAAIAFNGHNHPILTIYWGQGTQVTVGG
modifications: C-terminus covalently bound to the puromycin of the nucleic acid linker (linker carries biotin and fluorescein)
notes: as for B3
Consider B5, for which the binding result with カルモジュリン was “no binding (tested: 500 nM in the protein mix)”.
